According to patent publication US20130252987A1, “METHOD OF REGULATING PLASMA LIPOPROTEINS” (MCMASTER UNIVERSITY, priority 2010, published 2013):

Legend:
HepG2 cells [1] = test: electron microscopy of secreted VLDL fraction; assay type: cell-based, human; details: 50 ng/mL, 24 hours
Method: The VLDL lipoprotein fraction was isolated from HepG2 cell media via ultracentrifugation at density of 1.006 g/mL using a Beckman Optima TL ultracentrifuge and 100.4 TLA rotor (Beckman Coulter, Brea, Calif.). Mean particle size for VLDL was then determined using the Hitachi 7000 electron microscope equipped with a AMT XR-60 digital camera. The fixation process for electron microscopy utilized 1% Os04 in a phosphate buffer at pH 7.4 applied to the VLDL fraction for a 30 minute exposure. A small drop of this solution was placed on a 400 mesh copper grid coated with a carbon film and allowed to stand for 3 minutes or until sample has dried. The fixed VLDL were placed on the electron microscope grid for viewing and digitizing. The captured images were taken at 75 KV using a beam current of 25 uA. Digital Images of the VDL were taken at about 50,000×. The mean particle size was then determined by importing the digital images into NIH image J software.
The secretion of apoB protein by HepG2 cells increased markedly by approximately 8-fold with human resistin treatment, along with the observed increases in secreted VLDL lipids. […] Furthermore, the quantity of VLDL particles found in a representative […] area was increased markedly in resistin-treated samples by a mean of 10-fold.

HepG2 cells [2] = test: apoB and apolipoprotein expression and secretion, immunoprecipitation and Western blot; assay type: cell-based, human
Method: During experiments in which HepG2 cells were treated with human recombinant resistin (Calbiochem, UK) the media was changed to 1% FBS-containing DMEM. […] In separate experiments, cells were treated with the fatty acid, oleate (100 μM) (Sigma, ON) for 24 hours, with or without human resistin (50 ng/mL) for 24 hours. In other experiments, cells were treated with the 10 μM lactacystin (Cayman Chemical, Ann Arbor, Mich.) for 24 hours to assess intracellular proteosome-dependent apoB protein degradation.
Horseradish peroxidase-conjugated antibodies (BioRad, Hercules, Calif.) were used as secondary antibodies.
All of the experiments to follow were performed three times and representative results are shown. […] Immunoprecipitation on cell lysates and media, followed by Western blots to detect the cellular expression and secretion of human apoB protein were then performed. The constitutively expressed cellular proteins, beta-actin and albumin were used as internal immunoblot controls to confirm equal protein loading in the apoB immunoblots of cell lysates and media, respectively. […] Treatment with 25 ng/mL resistin further stimulated apoB secretion by approximately 250% compared with untreated cells (FIG. 1A).

HepG2 cells [3] = test: FPLC lipoprotein profile of HepG2 cell media; assay type: cell-based, human; details: 50 ng/mL, 24 hour
Method: Lipids from HepG2 cell extracts were quantified by gas chromatography (GC) as described in Sahoo et al. (J. Lipid Res. 45:1122-1131). Briefly, cell extracts were incubated with phospholipase C (Sigma, ON) to remove polar head groups, then extracted in the presence of internal standard by the method of Folch et al. (J Biol Chem 226:497-509). Extracted lipids were passed through a sodium sulfate column to remove aqueous contaminants, and derivatized with Sylon BFT (Supelco, ON) to cap reactive hydroxyl and carboxyl groups. Derivatized lipids were dissolved in hexane and injected onto a Zebron ZB-5 column (Phenomenex, Torrance, Calif.) in an Agilent 6890 GC instrument. Lipoprotein Profiles. HepG2 media from 6-10 cm plates was collected and concentrated using an Amicon Centriprep concentrator 50 K and lipoprotein classes separated by fast protein liquid chromatography (FPLC) on a Superose 6 10/30 gel filtration column (Amersham, UK) followed by inline post-column reaction with either Infinity Triglyceride or Infinity Cholesterol reagent (Thermo Scientific, West Palm Beach, Fla.) and measurement of absorbance @ 500 nm.
The characteristics of the apoB-containing lipoprotein particles produced as a result of treatment of human hepatocytes with human resistin was determined. […]

HepG2 cells [4] = test: immunoblotting for LDL receptor and PCSK9 in HepG2 cells; details: 24 hours
Method: Cells were propagated in 10% FBS-containing DMEM supplemented with 1% penicillin-streptomycin and 0.06% L-glutamine (584 mg/L) at 37° C., 5% CO2. During treatment experiments with human recombinant resistin (Calbiochem, UK) and/or lovastatin (Sigma, Mo.), the media was changed to 1% FBS-containing DMEM. All of the experiments to follow were performed at least three times and representative results are shown. Cells were stimulated with resistin at various doses (0, 10, 25, 50, and 100 ng/mL) for 24 hours or with a single dose at 50 ng/mL resistin. In other experiments, the microsomal triglyceride transfer protein (MTP) inhibitor, CP-346086, was administered at 1.3 nM, either alone or together with resistin (50 ng/mL) for 24 hours. Lovastatin was administered at 1 to 5 μM for 24 hours to stimulate the cells, either alone or in combination with resistin (50 ng/mL). Unless otherwise indicated, all experiments were performed in triplicate in three independent experiments.
Cell lysates collected with RIPA buffer (50 mM Tris, 150 mM sodium chloride, 1% NP-40, 12 mM sodium deoxycholate, 3.5 mM SDS, pH 7.4) and protease inhibitor cocktail (Roche Diagnostics, QC) were analyzed for human LDL receptor and PCSK9 as previously described (Rashid et al. Proc Nall Acad Sci U S A 2005; 102:5374-9). Equivalent amounts of total protein, determined by Bradford reaction was subjected to sodium dodecyl sulfate polyacrylamide gel electrophoresis (SDS-PAGE), transferred onto nitrocellulose membranes (BioRad, CA) and immunoblotted using antibodies against the LDL receptor (Fitzgerald International, CA) and PCSK9 (Cayman Chemicals, MI). Horseradish peroxidase-conjugated antibodies (BioRad, CA) were used as secondary antibodies. Immunoreactive bands were visualized with a chemiluminescence kit (PerkinElmer Life Sciences, MA). The blots were exposed to KODAK Biomax films, and the signal was quantified by densitometry using Quantity One version 4.6.7. software (Bio Rad, CA).
All of the experiments were performed at least three times and representative results are shown. Dose-response experiments were performed in HepG2 cells with 0, 10, 25, 50, 75 and 100 ng/mL of human resistin for 24 hours. Western blots were then performed on cell lysates to detect the cellular expression of LDL receptor protein.

B1: human resistin: recombinant lyophilized purified human resistin (Calbiochem); cysteine-rich cytokine, single 12 kDa band (protein)
chain: KTLCSMEEAINERIQEVAGSLIFRAISSIGLECQSVTSRGDLATCPRGFAVTGCTCGSACGSWDVRAETTCHCQCAGMDWTGARCCRVQP
increase in quantity of VLDL particles in a representative 100 cm^2 area (HepG2 cells [1]): 10 fold | increase of hepatic apoB cellular protein expression and secretion versus control, untreated HepG2 cells (HepG2 cells [2]; 10 ng/mL resistin, 24 hours): ~100% | stimulation of apoB secretion compared with untreated cells (HepG2 cells [2]; 25 ng/mL resistin, 24 hours): approximately 250% | effect on the stimulatory effect of oleate on hepatic cellular apoB expression and secretion (HepG2 cells [2]; 50 ng/mL resistin added to 100 μM oleate, 24 hours): doubled | apoB expression or secretion on addition to lactacystin (HepG2 cells [2]; 50 ng/mL resistin added to lactacystin 10 μM, 24 hours): did not further increase | increase in cellular apoB protein expression versus untreated cells (HepG2 cells [2]; 50 ng/mL resistin, 24 hours): approximately 3500% | increase in secreted apoB versus untreated cells (HepG2 cells [2]; 50 ng/mL resistin, 24 hours): 1000% | apoB secretion above untreated HepG2 cells (HepG2 cells [2]; 50 ng/mL resistin, after 48 hours, no restimulation): 100% | earliest time of increase in apoB protein secretion into HepG2 cell media (HepG2 cells [2]; 50 ng/mL resistin, time course): 4 h | time of maximal cumulative effect on apoB protein expression in the media (HepG2 cells [2]; 50 ng/mL resistin, time course): 24 h | increase in secretion of apoB protein by HepG2 cells (HepG2 cells [2]; 50 ng/mL, 24 hour): approximately 8 fold | apoCI or CIII protein expression (HepG2 cells [2]; 50 ng/mL, versus untreated): no difference | expression of secreted apoE (HepG2 cells [2]; 50 ng/mL, versus untreated): increase | cellular apoB expression and secretion versus that produced by 50 ng/mL resistin (HepG2 cells [2]; 100 ng/mL resistin, 24 hours): reduced cellular apoB expression markedly | increase in secreted VLDL triglycerides and cholesterol relative to control untreated cells (HepG2 cells [3]): 8-9 fold | lipid contents of the secreted LDL or HDL fractions (HepG2 cells [3]): virtually no change | reduction of LDL receptor protein expression (HepG2 cells [4]; 25 ng/mL resistin): 30% | decrease in cellular LDL receptor protein expression (HepG2 cells [4]; 50 ng/mL resistin): 40% | decrease in cellular LDL receptor protein expression (HepG2 cells [4]; 75 ng/mL resistin): 40% | increase in cellular PCSK9 protein (HepG2 cells [4]; resistin 50 ng/mL, with lovastatin 5 μM): 50%
